{
  "source": "IntAct's records for PubMed 21311754",
  "key": {"[1]": {"target": "apc_human APC (UniProt P25054)", "sequence (P25054 whole entry)": "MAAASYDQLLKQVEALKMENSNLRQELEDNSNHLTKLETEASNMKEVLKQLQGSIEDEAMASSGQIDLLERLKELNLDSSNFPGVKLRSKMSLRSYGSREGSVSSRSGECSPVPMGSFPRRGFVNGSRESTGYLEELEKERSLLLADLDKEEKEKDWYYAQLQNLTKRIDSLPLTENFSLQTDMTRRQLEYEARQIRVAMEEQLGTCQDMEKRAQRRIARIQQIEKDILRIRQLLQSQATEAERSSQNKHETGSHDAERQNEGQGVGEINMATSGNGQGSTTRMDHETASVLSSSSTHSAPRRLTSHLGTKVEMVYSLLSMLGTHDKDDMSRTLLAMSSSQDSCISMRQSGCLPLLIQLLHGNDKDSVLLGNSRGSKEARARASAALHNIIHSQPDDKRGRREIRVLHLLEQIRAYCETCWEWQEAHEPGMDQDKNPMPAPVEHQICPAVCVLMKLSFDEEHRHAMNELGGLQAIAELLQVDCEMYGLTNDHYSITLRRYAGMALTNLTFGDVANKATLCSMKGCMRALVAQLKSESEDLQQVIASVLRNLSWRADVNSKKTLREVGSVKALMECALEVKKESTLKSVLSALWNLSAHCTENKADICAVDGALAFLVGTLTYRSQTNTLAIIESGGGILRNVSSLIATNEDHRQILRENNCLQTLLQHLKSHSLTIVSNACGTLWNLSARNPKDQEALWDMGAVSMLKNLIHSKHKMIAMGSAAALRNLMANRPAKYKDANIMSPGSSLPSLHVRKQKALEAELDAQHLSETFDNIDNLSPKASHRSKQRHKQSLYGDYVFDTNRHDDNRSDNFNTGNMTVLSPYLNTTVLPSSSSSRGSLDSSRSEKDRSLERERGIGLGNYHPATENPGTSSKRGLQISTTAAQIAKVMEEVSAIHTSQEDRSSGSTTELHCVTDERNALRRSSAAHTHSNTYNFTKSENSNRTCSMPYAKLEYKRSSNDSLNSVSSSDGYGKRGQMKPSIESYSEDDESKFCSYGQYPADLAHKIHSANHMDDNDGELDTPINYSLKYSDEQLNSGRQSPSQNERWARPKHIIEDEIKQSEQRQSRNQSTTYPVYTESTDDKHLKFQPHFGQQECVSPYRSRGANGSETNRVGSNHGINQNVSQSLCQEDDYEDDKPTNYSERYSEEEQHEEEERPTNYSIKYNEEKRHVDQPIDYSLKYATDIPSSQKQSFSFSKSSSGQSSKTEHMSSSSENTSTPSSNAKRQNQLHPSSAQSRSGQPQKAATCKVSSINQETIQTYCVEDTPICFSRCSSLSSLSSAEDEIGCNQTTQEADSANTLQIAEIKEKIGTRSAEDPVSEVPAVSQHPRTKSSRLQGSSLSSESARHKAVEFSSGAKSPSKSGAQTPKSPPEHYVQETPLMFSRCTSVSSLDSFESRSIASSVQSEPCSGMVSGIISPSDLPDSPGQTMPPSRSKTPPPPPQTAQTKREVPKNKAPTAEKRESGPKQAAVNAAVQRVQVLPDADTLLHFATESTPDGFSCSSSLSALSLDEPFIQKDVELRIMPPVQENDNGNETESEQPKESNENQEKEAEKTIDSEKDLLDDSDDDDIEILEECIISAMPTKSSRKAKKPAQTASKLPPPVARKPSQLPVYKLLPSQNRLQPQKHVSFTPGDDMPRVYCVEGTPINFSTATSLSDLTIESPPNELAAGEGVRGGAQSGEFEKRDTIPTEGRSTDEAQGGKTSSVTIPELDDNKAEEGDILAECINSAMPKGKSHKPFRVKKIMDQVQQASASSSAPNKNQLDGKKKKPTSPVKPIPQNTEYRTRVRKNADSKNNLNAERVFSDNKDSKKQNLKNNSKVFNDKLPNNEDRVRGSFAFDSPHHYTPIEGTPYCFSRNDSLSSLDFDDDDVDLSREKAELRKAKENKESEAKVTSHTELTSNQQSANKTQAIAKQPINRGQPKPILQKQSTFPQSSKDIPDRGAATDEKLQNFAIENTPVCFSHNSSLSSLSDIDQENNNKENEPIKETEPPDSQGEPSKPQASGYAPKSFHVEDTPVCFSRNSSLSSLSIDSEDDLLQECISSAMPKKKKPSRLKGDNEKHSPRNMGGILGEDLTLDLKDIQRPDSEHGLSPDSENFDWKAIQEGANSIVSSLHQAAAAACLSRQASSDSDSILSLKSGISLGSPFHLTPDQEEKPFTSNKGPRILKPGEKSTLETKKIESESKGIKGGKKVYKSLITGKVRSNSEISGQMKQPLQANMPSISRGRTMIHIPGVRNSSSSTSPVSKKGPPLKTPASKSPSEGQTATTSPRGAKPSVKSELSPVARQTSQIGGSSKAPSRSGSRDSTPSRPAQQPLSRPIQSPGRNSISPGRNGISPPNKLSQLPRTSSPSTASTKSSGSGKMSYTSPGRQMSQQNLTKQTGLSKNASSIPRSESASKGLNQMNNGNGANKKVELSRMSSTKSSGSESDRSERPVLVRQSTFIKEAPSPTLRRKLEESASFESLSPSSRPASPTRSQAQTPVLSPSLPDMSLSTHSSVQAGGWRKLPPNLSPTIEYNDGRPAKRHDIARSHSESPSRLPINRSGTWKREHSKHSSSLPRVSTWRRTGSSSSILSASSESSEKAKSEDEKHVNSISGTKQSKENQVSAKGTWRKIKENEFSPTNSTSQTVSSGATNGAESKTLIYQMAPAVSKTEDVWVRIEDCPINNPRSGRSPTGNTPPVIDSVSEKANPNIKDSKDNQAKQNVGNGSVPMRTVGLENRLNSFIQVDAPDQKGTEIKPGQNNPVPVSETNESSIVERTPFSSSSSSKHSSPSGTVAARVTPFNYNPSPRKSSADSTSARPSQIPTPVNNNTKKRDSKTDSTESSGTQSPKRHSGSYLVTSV"}, "[2]": {"target": "apc_human APC (UniProt P25054)", "remark": "listed apart in the source"}},
  "data": [
    {"substance": "Cell division control protein 42 homolog (Homo sapiens), P60953 T17N", "values": [
      {"measurement": "effect of a mutation on the interaction", "setting": "[1]", "result": "disrupting interaction strength"},
      {"measurement": "effect of a mutation on the interaction", "setting": "[2]", "result": "decreasing interaction strength"}
    ]}
  ]
}
